Experimental findings from patent US6462173B1, “Inhibitors of phosphoserine and phosphothreonine-proline-specific isomerases” (Max-Planck-Gesellschaft zur Forderung der, priority 1997, dated 2002) are described below.

One data set concerns T1, AEPF-pNA.
T1 sequence: AEPFNA

In a further data set the test system is T2, AAPF (peptide substrate).
T2 sequence: AAPF

The test system of data set [1] is phosphorylated and unphosphorylated peptide substrates; AEPF, AAPF. In words: PPIase activity of site-directed Pin1 mutants and parvulin. The class given is biochemical.
Source text: To test these predictions from the model, site-directed Pin1 mutants were generated and their PPIase activity assayed as described herein and in K. P. Lu, S. D. Hanes, T. Hunter, Nature 380:544 (1996); K. P. Lu and T. Hunter, Cell 81:413 (1995).
Site-directed mutations of Pin1 were introduced using PCR-based techniques and verified by DNA sequencing. The corresponding mutant proteins were expressed and purified using the same procedures as those described for wild-type Pin1. PPIase activity was measured, as described previously (Lu et al., 1996), with the exception that the absorbance of p-nitroaniline (at 395 nM) was followed every second for 2-10 min. and data were analyzed offline using a kinetic computer program written by G. Tucker-Kellogg in the C.

In the case of GST-Pin1^H59A, the PPIase activity result in the data set with AEPF-pNA and in the data set with AAPF (peptide substrate) was “The PPIase activity of Pin1^H59A was barely detectable against either peptide substrate” in each case.

B1: Parvulin: prototype of the Pin1 family of PPIases, R68 and R69 replaced by Glu (protein, UniProt P0A9L5 2-93, looked up)
Peptidyl-prolyl cis-trans …: AKTAAALHILVKEEKLALDLLEQIKNGADFGKLAKKHSICPSGKRGGDLGEFRQGQMVPAFDKVVFSCPVLEPTGPLHTQFGYHIIKVLYRN
As to B1, the “isomerization of pS-P peptidyl bonds” value in data set [1] (phosphorylated peptide) is on record as “failed to catalyze the isomerization of pS-P peptidyl bonds”. The “catalytic activity for the unphosphorylated peptide substrate” value in data set [1] (unphosphorylated peptide) was “very effective in catalyzing the P isomerization of the unphosphorylated peptide”.
